Earlier results on one sequence are cited in PMC4741949.

In the data set the target is EGFR wild-type (human) (UniProt P00533). The conditions noted are these: 2'F-pyrimidines (2'F-C, 2'F-U), RT-qPCR: 15 min 37 C, 100 ug/ml polyinosine, DPBS washes, flow cytometry: DPBS, 30 min, confocal: DMEM without FBS, UV cross-linking buffer not given. In general terms: Quantitative PCR measures a nucleic acid by following its amplification.

As to “GCCUUAGUAACGUGCUUUGAUGUCGAUUCGACAGGAGGC [CL4]”, the dissociation constant (Kd) was 10 nM.

As a reminder, the Kd is a measure of binding affinity in units of concentration.
